From the DeepSol protein solubility set

Experiment: soluble on expression in E. coli; label from the status in PepcDB or PDB records

Sequence	soluble on expression in E. coli
MGSDKIHHHHHHMALKDYAIEKEKVKKFLQEFYYENELGKKQFKYGTQLVHLAHREQVALYVDLDDIAEDDPELVDSICENAKRYSRLFGDVVQELLPEYKEKEVVNKDVLDVYIEHRLMMEQRSRDPGAVRNPQNQYPSELMRRFELYFRGPSSSKPRVIREVRADSVGKLLTVRGIVTRVSEVKPRMVVATYTCDQCGAETYQPIQSPTFMPLIMCPSQECQTNRSGGRLYLQTRGSKFVKFQEMKIQEHSDQVPVGNIPRSITVVLEGENTRIAQPGDHVSVTGIFLPVLRTGFQQMAQGLLSETYLEAHWIVKMTKSDDDVSGAGELSSEELKQIAEEDFYEKLAASIAPEIYGHEDVKKALLLLLVGGVDQSPQGMKIRGNIHICLMGDPGVAKSQLLSYIDRLAPRSQYTTGRGSSGVGLTAAVLRDSVSGELTLEGGALVLADQGVCCIDEFDKMAEADRTAIHEVMEQQTISIAKAGILTTLNARCSILAAANPAYGRYNPRRSLEQNVQLPAALLSRFDLLWLIQDRPDRDNDLRLAQHITYVHQHSRQPPAQFEPLDMKLMRRYIAMCHERQPTVPESLADYITAAYVEMRREARASKDATYTSARTLLAILRLSTALARLRMVDIVEKEDVNEAIRLMEMSKDSLLGEKGQTARTQRPADVIFATIRELVSRGRSVHFSEAEQRCISRGFTPAQFQAALDEYEELNVWQVNTSRTRITFV	not soluble
MGSDKIHHHHHHMALQWVKRTIKAGAALAGCVLVVTALDPARGSVDAKERVKGIVAAAAMSPAGIPFELAAQEIATIGTRPMAERLSISGELQPVNRVLIRAREAGKILEMNVREGQAVRAGDMLVRFETDELQSTLLLRQSDRDAAEAELMLAMQALARTEQLAAKNIASTEQLDKAKSDVVVKTTRVQSLSSQVDIARLALRNAEIRAPFDGTVTRRVAETGARIGADGELLTLVDTSELEAKVLVATRDIPRVARGQTAELEIDGLAGQIVKGTVERISPVAEDGTRVVAVYLRLANRDGQLWGGMFAGGSILLREKNDALVVPAIALRKDETGYHVLKIQDGHLRRQTVAVGPRWNGGSLIEIGAGLADGETILTVPLPELRPDMAVTIDKAG	not soluble
MGSDKIHHHHHHMALVRLSQIHFNFQTAAQPLFEDLNLTIAAGECHLIHGYTGCGKSTLLKLLQGILERPWEGEREIAEGATLGVVMQDPNVQLLRQTLGAEVAFALENLGVASSEMLLQVRSALRRVGLYISLDTPIASLSLGQRYRLMIAAQLVLEPDLLLLDEPWAQLDDQGVAELSAVLHQLKQQGVALLIVEHHRGVFKDLVTHRWQLSQGQLQALAPAECEATSEQVSWRESPAWPQGSAVIDSHGFTLAFRERQKLFDADSLLLFPGEIAALVGDNGCGKSTLLKSLAGIQADIDPLGIKVFGKKPKLGRFGADLALLHQRPSRQLFENTVIEEMQFSLKRFGLPLERAIELLGQLGLTTLARHSPHTLSYGQQHLIALASLACLRPKLLLLDDPFAGLDEHFTDKIVALLTELSRQGTALVIASHRPIAALPVDRLWRVVDGRLESLSASPQAYSRVG	not soluble
MGSDKIHHHHHHMALYEPFPNYIWNLSVSIAMESGGQIGEIVDMCQPIIDAASNGGDAGTPQFMKQWAAYGDKLIALAAEDEARGRMFSASNKLERASLYLLVAERMQGHGAPGRKESYAKARDAFDKSTALGKINRERVEIPLGKGTMPALYTRAPGNGPHPVVVYCNGLDSCKELLYWSRLPEALARRGISTICVDQPGSGEALRLQDLPVDPHSENWASKAVDWLEQQPDVDPKRIGMTGISLGGHFAPRAVAYEPRFASGAVWGANHNWREVQDKRLKREGENPVPHYWAHVMWAFGASDMDDFMVKSEDMNLNGHMDRIKVPFLVTHGADDRQISVSYADDLYDQLVNSPRREKVIFTAREGGVEHVGADNMAYGRDCIADWFAETLGGTTA	not soluble
MGSDKIHHHHHHMAMEHVDVLIVGAGLSGIGAAYHLQKHCPGKTYAILEGREAIGGTWDLFRYPGIRSDSDMYTLGYSFKPWKAAKAIADGPSILDYVRETAREHDIDRHIRFQHLVKRASWSSETATWTVEAEHDGKPVTLTCRFLHMCSGYYRYSAGYTPDFAGTERFKGRIVHPQHWPEDLDYSGKKVVVIGSGATAVTLVPEMAKTAAHVTMLQRSPTYVVSRPAEDGIANWLRSKLPAMTAYGITRWKNVLFQLFFFNLARKKPEKVKERLLGMVRDHLGPGYDVETHFTPRYNPWDQRLCLVPDADLFDAIKSGAASVVTDHIETFTETGIQLKSGKTLDADVIVTATGLQLQLLSGMEVVVDGKVADLSQSMSYKGMMFSDVPNLASVFGYTNASWTLKADLTSEYVCRLLNHMDRTGADYCVPRLDGEVEAAPWLDFSSGYITRSIGHFPKQGTRKPWKVHQNYALDLMTLRMGKVEDGVMQFGRKTGATAKAKPEKALEPA	not soluble
MGSDKIHHHHHHMAMTQTENQTAPQQHIRIFDTTLRDGEQSPGVALNHAQKLEIAHTLARMGVDVIEAGFPIASPGDLEGVSRIAREVRGPVITALARANRADIEAAAKGVEAAEKSRIHTFIATSPIHMQKKLNLEPDAVIERAVEAVRLARQYVDDVEFSAEDATRSEWDFLSRIFKAAVEAGATTINVPDTVGYTTPEEMRKLFAYLKAKLPAHVILSSHCHDDLGMAVANSIAAAEGGARQIECTINGIGERAGNASLEEIVMAFHTRRDVYGYETGIRTRELYRASRLVSRLSGMPVQPNKAIVGDNAFAHESGIHQDGVIKARETYEIMNAELVGREAAVLVMGKHSGRAAFRKALTDLGYGDIPDDKVQHLFGRFKDLADRKGQIYAEDLRALVDARSDVPQTFSLEGFQITSGMNMMPVAFVRLHTPDGPVDATAHGDGPVEAAFQAISKITGISPTLESYRIQSVTRGDDALGEVSIHVRHGETQLNGTGVATDIVEASARAWIRVMNMIVAGMGKNKAITQMTP	not soluble
MGSDKIHHHHHHMANIYPKRAIYCACAKTRKQRRSSYMSNERYNLRGVSASKEDVHAAIKNVDKGIFPQAFCKIIPDILGGDPDYCNIMHADGAGTKSSLAYVYWRETGDLSVWKGIAQDALIMNIDDLLCVGAVDNILVSSTIGRNKRLIPGEVVSAIINGTEELLADLRRMGVNAYATGGETADVGDLVRTIIVDSTVTCRMKRSDVIDNARIKAGDVIVGLASFGQASYEEQYNGGMGSNGLTSARHDVFAHYLAEKYPESFDPSVPDDLVYSGSMKLTDAIAGLGLDAGKLVLSPTRTYAPVVKAILDEMSRRIHGMVHCSGGAQTKVMHFVKNKRVVKDNFFPTPPLFELIQRESLTEWSEMYKVFNMGHRLEVYLSEENASHVIEISESFGIPARIVGRVEEAPTNELILQTPYGEIRY	not soluble
MGSDKIHHHHHHMANNNGKDKSLESWIWDAACSIRGAKDAPKYKDYILPLIFTKRLCDVFDDELNRIAAEVGSRKKAFQLAKADHKLVRFYLPLVPDDPEQPVWSVIRKLSDWIGEGVTSHMRAIARENPLLQGIIDRVDFNATTHGQRDLDDDRLSNLIEAISTKRLGLEDVEADIIGKSYEYLIRKFAEGGGQSAGEFYTPPEVGTIMSRVLQPEPGMEIYDPTCGSGGLLVKCEIAMEETAKGKKRTVAPLKLFGQEFTPETWAMANMNMIIHDMEGQIEIGDTFKNPKFRSKGKLRTFDRVVANPMWNQDWFTEADYDNDELDRFPAGAGFPGKSSADWGWVQHIHASMNATGRAAVVLDTGAASRGSGNAGTNKEKTVRQWFVDHDLIESVLYLPENLFYNTTAPGIVLFLNKAKAHERKGKVFLVNASQVFEKGDPKNFIPEAGIQRIADTLIGWVEAEKLSRIVDHAELKKNDYNISPSRYIHTSDAETYRPIAEIVEELEAIEAEAKETDQALDRILKQLGIGA	not soluble
MGSDKIHHHHHHMANQLILLKKDFFTDEQQAVTVADRYPQDVFAEHTHEFCELVMVWRGNGLHVLNERPYRITRGDLFYIRAEDKHSYTSVNDLVLQNIIYCPERLKLNVNWQAMIPGFQGAQWHPHWRLGSMGMNQARQVINQLEHESNGRDPLANEMAELLFGQLVMTLKRHRYATDDLPATSRETLLDKLITALANSLECPFALDAFCQQEQCSERVLRQQFRAQTGMTINQYLRQVRICHAQYLLQHSPLMISEISMQCGFEDSNYFSVVFTRETGMTPSQWRHLSNQSD	not soluble
MGSDKIHHHHHHMARINLEQLSTFLAVVRLGGVRRAATSLNLTQPAVTARIKNLEDNLDCELFDRTQSGMKLTKRGELLLGHAEKYEHLTQLVERDLVDPAGVEGRLRLGASETIAQCWLPDLVTRLHQLFPKLEIELVVDISANLRAGLMDRELDLAILLGPLSEFSVNNVELPDFELAWYAAADTSSEAIAASYLSRPVLTYPRNTRPYRELKEKLFEQAGPNFSLFPSSSLSACFRLVEADLGVAVLPRALGREYVLAGRIREFDPGWVPAPLRFTICYMGEPKSQLIETAAHMAREVAVDYHGDKNNL	not soluble
MGSDKIHHHHHHMARQNKRQSDDRELARKFEELLKEGTPGFFDVSVYESIIQYYLEGTKFRKAHRTCDIAMEQHPYSVEIMLLKVQVLMQMTQFEEALEILDRAQLYQPNDTDIQLLRANIMAQQDDFEGAIELLEEILTLAEEKDEIHYHMGVIYQDMGNFEESINHLKEAIMLNSQHEDAIYELSYSLEVLDRLEESIDFFKQLIEKDPYSHFAWFCLGVSYFKQGKLDEALDAYEFVIAINDKYSSAYYNIGECYVYKNEYEKALEYFFQTMDMEDKTADVFYNIGFCYEHLGMHPKAIEFYRKASKADAYFHEAYYGIGKCLEAQDKSYESIHFFKRALKLDEANAEYWLAKANAEYKTGNIISSLEAFEEACVLEPSNPEVWKNWSFVHYESGDMDKAIDLINAGIDEMPGNADLYYRAVAYLITAGRYKEAFNYLENALTLNFDSHTVLFEFFPKLETQKALFRIIDQYRNK	not soluble
MGSDKIHHHHHHMASIQNLYETVVGVLGDQASKVISALGEITVECLPEHYISVMTALRDHEELHFELLVDLCGVDYSTYKNEVWQGKRFAVVSQLLSVKNNQRIRVRVWVSDDDFPVVESVVDIYNSADWYEREAFDMYGIMFNNHPDLRRILTDYGFVGHPFRKDFPISGYVEMRYDEEQKRVIYQPVTIEPREITPRIVREENYGGQ	not soluble
MGSDKIHHHHHHMASMFNRVPPLHLLVAFEAAARLGSFARAAEELSVTPSAVSHRIKNLEELWGEDLFVRSNAALRLTAAGTRYLRNVQDALKSLNELARPEYNKMRTRLRVAIPPTFGRQHLVPRLPEFGALYPHIDIELHLAIPFLDVKAEDTDVEIRYGTGRYPDLKTTKLLVEPVFPACGREYYERVNGRAITKPEHLHGLVLLRSPLEPWKPWFETAGLDWPEPQTGPQLNDIGLMLEAVASNQGVALVRQRMARHWLSLGQMVRLLDIESVSPHGYYIVEREQAPLKPEARYFVDWLLSLDW	not soluble
MGSDKIHHHHHHMATRHDRDGGQTTANLTIATGLDAFTRKEWATLAGTTRSDSDYNPFISHEFLAALEESGCAARRTGWLPQHLRLEDANGSLLGVVPCYLKSHSKGEYVFDYGWADAFERAGGQYYPKLQVSVPFTPVTGPRLLASKDADPDAVRQALAEGLKTLTDRLGVSSLHVTFAPRSETEVLSHAGFLTRTDQQFHFFNEGYGSYEDFLEALASRKRKALKKERRTAVEAGMEIEWLTGRDITEAAWDDFFAFYMDTASRKWGRPYLNRLFFSLIGERMADDILLVMAKRGSRYIAGAINFIGSDALYGRNWGAIEHHPFLHFEVCYHQAIEFAIAKGLKRVEAGAQGEHKLARGYLPVTTYSAHYIAHPGLRRAVADYLSRERREVEAIGDFLTEHSPYKKG	not soluble
